Test results as given in patent publication US10787640B2, “Producing mesodermal cell types and methods of using the same” (The Board of Trustees of the Leland Stanford Junior …, priority 2015, dated 2020).

Tests used:
Type in all cases: cell-based, human
[1] = tested on: paraxial mesoderm; experiment: Paraxial mesoderm induction, marker expression; conditions: during induction of paraxial mesoderm
Procedure: All differentiation was conducted in serum-free CDM2 basal medium in monolayer feeder-free conditions. hPSCs were sparsely passaged ˜1:15-1:20 as fine clumps (using Accutase) onto Geltrex (Gibco)-coated cell culture wells and cultured overnight in mTeSR1+1 μM thiazovivin. The following morning, hPSCs were differentiated towards anterior PS (30 ng/mL Activin+4 μM CHIR+20 ng/mL FGF2+100 nM PIK90; for subsequent paraxial differentiation) or mid PS (30 ng/mL Activin+40 ng/mL BMP4+6 μM CHIR+20 ng/mL FGF2+[…] differentiation) for 24 hrs. D1 anterior PS→D2 paraxial mesoderm (1 μM A8301+3 μM CHIR+250 nM LDN193189+20 ng/mL FGF2) for 24 hrs. D1 mid PS→D2 lateral mesoderm (1 μM A8301+30 ng/mL BMP4+1 μM C59) for 24 hrs.
Subsequently, day 1 anterior primitive streak was briefly washed (DMEM/F12) and differentiated towards day 2 paraxial mesoderm for 24 hours (1 μM A-83-01+3 μM CHIR99021+250 nM LDN-193189+20 ng/mL FGF2). Separately, day 1 mid primitive streak was differentiated towards day 2 lateral mesoderm for 24 hours (1 μM A-83-01+30 ng/mL BMP4+1 μM C59; with 2 μM SB-505124 sometimes used instead of A-83-01).

[2] = tested on: day 6 sclerotome; experiment: Sclerotome differentiation towards cartilage
Procedure: Day 6 sclerotome was briefly washed (DMEM/F12) and treated with BMP4 (20 ng/mL) for 72-144 hours, leading to day 9 or day 12 cartilage-like progeny. Media was changed every 24 hours.
hPSC-derived cartilage progeny were stained with safranin-O to assess their production of acidic proteoglycans, which is a key trademark of cartilage phenotypic function. Safranin-O staining was conducted in accord with standard procedures. Namely, hPSC-derived cartilage progeny at day 12 of differentiation (day 6 sclerotome treated with chondrogenic BMP4 for 6 further days) were fixed (with 4% formaldehyde, for 10 minutes at room temperature), washed twice in PBS, briefly treated with 1M acetic acid for 15 seconds, stained with 1% safranin-O solution for 10 minutes, washed with PBS, and wide-field visualization was performed with a dissecting microscope (Leica M205 FA).
FIG. 11: A) To determine the length of time required for sclerotome differentiation, a qPCR timecourse was performed, encompassing undifferentiated hESCs (D0), day 2 hESC-derived paraxial mesoderm (D2 PXM), day 3 hESC-derived early somite progenitors, and hESC-derived day 3 early somite progenitors that were exposed to sclerotome inductive conditions (5 nM 21K+1 μM C59) for 24 or 48 hours. B) Description of EF1α-BCL2-T2A-GFP lentiviral construct (otherwise known as “C306”; top) and FACS plot of a stably-transduced polyclonal H9 hESC line with near-uniform expression of the BCL2-T2A-GFP transgene (green contour) by comparison to uncolored wild-type hESCs (bottom) (see above methods for details of derivation of the H9 BCL2-T2A-GFP hESC line). C) Higher-magnification picture of BCL2-T2A-GFP hESC-derived sclerotome ectopic bone grafts (originally described above in FIG. 4, panel E), showing that despite the near-ubiquitous expression of GFP throughout the ectopic bone graft (indicating its human provenance), the blood vessels are clearly GFP-negative and therefore presumably derived from the mouse host; scale bar=1 mm. […]

[3] = tested on: day 3 hemogenic precursors; experiment: Hemogenic precursors into day 5 hematopoietic intermediates; conditions: withdrawal of the factor from BMP, VEGF, XAV939, TTNPB
Procedure: (§1) SOX17^mCherry/+ H9 hESCs (referred to as SOX17-mCherry hESCs throughout this study) were routinely propagated in mTeSR1 (StemCell Technologies)+1% penicillin/streptomycin. They were passaged ˜1:12-1:25 as fine clumps using Accutase (Gibco) onto plates precoated with a Geltrex substratum (Gibco) in mTeSR1 medium supplemented with thiazovivin ([…]; a ROCK inhibitor). After overnight plating, hESCs were washed (DMEM/F12) and differentiated towards posterior PS using BMP4 (15-40 ng/mL, R&D Systems), CHIR99021 ([…]), FGF2 (20 ng/mL, Invitrogen) and PIK90 (100 nM, Calbiochem) for 24 hours, with the optional inclusion of Activin (30 ng/mL, R&D Systems) to induce mid PS. Day 1 mid or posterior PS was subsequently washed (DMEM/F12) and further differentiated using BMP4 (40 ng/mL), GDC-0941 (0.25-2.5 μM, Cellagen Technology), Forskolin (10 μM, Tocris), SB-505124 ([…]), VEGF (100 ng/mL, R&D Systems), XAV939 (1 μM, Tocris) and ascorbic acid-2-phosphate (200 μg/mL, Sigma) for 24 hours. Day 2 cultures were further directed into the definitive hematopoietic lineage/hemogenic precursors by Activin A (15 ng/mL), GDC-0941 (0.25-2.5 μM), VEGF (100 ng/mL), XAV939 (1 μM) and ascorbic acid-2-phosphate (200 μg/mL) for 24 hours. Day 3 definitive hematopoietic progenitors were subsequently differentiated into early Runx1^lowGfi1^low hemogenic intermediates through day 4-5 treatment with BMP4 (50 ng/mL), TTNPB (500 nM), VEGF (100 ng/mL) and XAV939 (1 μM) for 48 hours, supplemented with SB-505124 (2 μM) on day 5. Day 5 populations were then dissociated into single cells, counted and reaggregated in individual wells of a low-adhesion V-bottom or U-bottom 96-well plate (e.g., Thermo Fisher, catalog no. 249952) with ˜15,000-20,000 cells seeded per well. Aggregates were cultured for 48 additional hours until day 7 in BMP4 (50 ng/mL), TTNPB (500 nM), VEGF (100 ng/mL), XAV939 (1 μM), SB-505124 (2 μM), SCF (25-50 ng/mL, R&D Systems), IL6 (10 ng/mL, R&D Systems) and IL6RA (250-1000 ng/mL, R&D Systems). All differentiation was conducted in serum-free CDM2 fully-defined basal media.

[4] = tested on: SOX17-mCherry hESCs; experiment: Hematopoietic mesoderm and SOX17+CD34+ hemogenic precursor specification
Procedure: as §1

## Cc1cnc(-c2cnc(NCCNc3ccc(C#N)cn3)nc2-c2ccc(Cl)cc2Cl)[nH]1 [CHIR99021, 6-[[2-[[4-(2,4-Dichlorophenyl)-5-(5-methyl-1H-imidazol-2-yl)-2-pyrimidinyl]amino]ethyl]amino]-3-pyridinecarbonitrile]
[1]; at 4 μM
  marker expression: undesired decrease in marker expression
[1]
  critical concentration: less than 4 μM

B1: BMP4: BMP family ligand, BMP agonist (protein, UniProt P12644 293-408, looked up)
Bone morphogenetic protein 4: SPKHHSQRARKKNKNCRRHSLYVDFSDVGWNDWIVAPPGYQAFYCHGDCPFPLADHLNSTNHAIVQTLVNSVNSSIPKACCVPTELSAISMLYLDEYDKVVLKNYQEMVVEGCGCR
[2]; BMP4 20 ng/mL
  EPIPHYCAN and AGGRECAN expression (timecourse qPCR): only upregulated after prolonged BMP treatment
  SOX9 expression (timecourse qPCR): rapidly downregulated
[2]; BMP4 for 3 further days, day 9
  cartilage fate (COL2A1, AGGRECAN, EPIPHYCAN, COMP): differentiated towards a cartilage fate
[3]
  RUNX1 expression by day 5: crippled RUNX1 expression

B2: Activin: TGFβ agonist (protein, UniProt P08476 311-426, looked up)
Inhibin beta A chain: GLECDGKVNICCKKQFFVSFKDIGWNDWIIAPSGYHANYCEGECPSHIAGTSGSSLSFHSTVINHYRMRGHSPFANLKSCCVPTKLRPMSMLYYDDGQNIIKKDIQNMIVEECGCS
modifications: Inhibin beta A chain
notes: TGFβ agonist
[4]; Activin 30 ng/mL during PS induction
  downstream ability to acquire hematopoietic fate: significantly enhanced the downstream ability of cells to acquire hematopoietic fate
[4]; treatment on day 2-3, 24 hours
  SOX17+ cells formed by day 3: doubled the generation of SOX17^+ cells
